Measurements as given in patent US20160206764A1 (ONCOINVENT, published 2016).

B1: OI-3 murine monoclonal antibody (antibody, V domains shown)
VH: EVQLQQSGPELVKTGASVKISCKASGYSFTGYYIHWVKQSHGKSLEWIGYISNYNGATTYSQEFKGKATFTVDRSSRIAYMQFTGLTSEDSAVYYCAGNSWGDWYFDVWGAGTTVTVSS
VL: DVVMTQTPLSLPVSLGDQASISCRSSQSLVHSNGNTYLHWYLQKPGQSPKLLIYKVSNRFSGVPDRFSGSGSGTDFTLKISRVEAEDLGVYFCSQSTHVSTFGGGTKLEIK
notes: also called ^177Lu-OI-3

What was measured:
[1] = target: CD146 (melanoma cell adhesion molecule (MCAM), cell surface glycoprotein MUC18), endogenous on human tumor cell lines (human) (UniProt P43121); test: MelJRpost3.3 cells pre-treated with OJ97cMUC18; competitor/tracer ^125I-OI-3
[2] = target: T1, CD146 (melanoma cell adhesion molecule (MCAM), cell surface glycoprotein MUC18), endogenous on human tumor … (human, UniProt P43121 24-646); test: saturation binding of ^125I-OI-3 to Mel 3.3 melanoma cells, Ka=1/Kd
T1 construct: whole, on cells; Also used here for the endogenous protein in lysates and tissue sections of these cells (Western blot, immunoprecipitation, IHC); also called Mel-CAM

[3] = target: T1, CD146 (melanoma cell adhesion molecule …); test: saturation binding of ^125I-OI-3 to Mel 3.3 melanoma cells, Scatchard plot
[4] = target: T1, CD146 (melanoma cell adhesion molecule …); test: saturation binding of ^125I-OI-3 to Mel 3.3 melanoma cells, interpolation of binding plot at half βmax

specific binding in % of ^125I-OI-3 after pre-treatment (no pretreatment = 100%) [1] [%] | Ka [2] [M⁻¹] | Kd [3] [nM] | Kd [4] [nM] | Molecule
101 | – | – | – | commercial murine monoclonal anti-CD146 (OJ79c MUC18) (antibody)
– | ~3.2e+08 | ~3.1 | 3.1 | B1
